Measurements as given in article PMC11217422, “Proton-pumping photoreceptor controls expression of ABC transporter by regulating transcription factor through light” (Communications Biology, 2024).

Molecular target: T1, G. violaceus transcriptional regulator, with His tag (Gloeobacter violaceus PCC 7421)
T1 construct: GvTcR, helix-turn-helix type transcriptional regulator of Gloeobacter violaceus PCC 7421, NCBI WP_011141437.1; gene amplified from genomic DNA with the printed primers (forward from the start codon, reverse adds His6 before the stop codon); also called GvTcR; HTH transcription factor protein; source: E. coli UT5600, purified (Ni-NTA); also in cell lysate; also co-expressed with GR from one pKA001 …
Test: ITC; MicroCal ITC200, room temperature, sonication buffer (150 mM NaCl, 50 mM Tris-HCl, pH 7.0) with 0.02% DDM; which protein was titrated is not told
Conditions: both partners purified

B1: GR R69A/K141A double mutant (natural protein)
chain: MLMTVFSSAPELALLGSTFAQVDPSNLSVSDSLTYGQFNLVYNAFSFAIAAMFASALFFFSAQALVGQAYRLALLVSAIVVSIAGYHYFRIFNSWDAAYVLENGVYSLTSEKFNDAYRYVDWLLTVPLLLVETVAVLTLPAAEARPLLIKLTVASVLMIATGYPGEISDDITTRIIWGTVSTIPFAYILYVLWVELSRSLVRQPAAVQTLVRNMRWLLLLSWGVYPIAYLLPMLGVSGTSAAVGVQVGYTIADVLAKPVFGLLVFAIALVKTKADQESSEPHAAIGAAANKSGGSLIS
modifications: retinal chromophore bound by a Schiff base (residue not given)
Kd: 6.2 ± 3.15 mM
